Non-standard residues stand in square brackets, D forms with d. No end group written: not given here. Aib = CC(C)(N)C(=O)O
What was measured:
human GIP receptor = target: T1, human GIP receptor (Homo sapiens, UniProt P48546); assay: In vitro activity of long-acting GIP conjugates: cAMP accumulation in CHO cells expressing human GIP receptor; format: cell-based; conditions: relative potency from cAMP EC50, CHO cells expressing human GIP receptor; PEG-immunoglobulin Fc conjugates
T1 construct: expressed in transfected cells; host or cells: CHO (Chinese hamster ovary)
T1 sequence (P48546 22-466): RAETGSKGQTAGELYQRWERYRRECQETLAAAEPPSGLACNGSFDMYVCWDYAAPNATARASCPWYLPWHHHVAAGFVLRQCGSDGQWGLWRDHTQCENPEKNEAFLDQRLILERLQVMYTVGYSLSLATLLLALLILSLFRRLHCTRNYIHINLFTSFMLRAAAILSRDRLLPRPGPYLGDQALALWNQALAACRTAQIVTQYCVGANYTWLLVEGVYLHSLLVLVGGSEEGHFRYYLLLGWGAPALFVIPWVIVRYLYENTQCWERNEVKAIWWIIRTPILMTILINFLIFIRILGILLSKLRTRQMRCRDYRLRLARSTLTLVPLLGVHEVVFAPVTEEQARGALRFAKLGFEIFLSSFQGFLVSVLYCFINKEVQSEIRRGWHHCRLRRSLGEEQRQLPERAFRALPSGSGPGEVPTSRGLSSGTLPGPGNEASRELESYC
Protocol: To measure the activity of the long-acting GIP conjugates prepared in Example 3, a method of measuring cell activity in vitro using a cell line transformed with the GIP receptor was used in the same manner as in Example 2.
In detail, to measure the activity of the long-acting GIP derivatives in the human GIP receptors, human GIP was serially diluted from 16 nM to 0.000015 nM by 4 folds, and the long-acting GIP derivatives prepared in Example 1 were each serially diluted from 50 nM to 0.000048 nM by 4 folds. The culture medium was removed from the cultured CHO cells where the human GIP receptors were expressed, 5 μl of each of the serially diluted materials was added to the cells, and then, 5 μl of buffer containing cAMP antibody was added thereto, followed by incubation at room temperature for 15 minutes. Next, the cells were lysed by adding 10 μl of detection mix containing cell lysis buffer, and then allowed for a reaction at room temperature for 90 minutes. The cell lysate obtained by the completion of the reaction was applied to the LANCE cAMP kit (PerkinElmer, USA) to calculate the EC50 value through the accumulated cAMP to be compared with each other.

THP-1 cell line [1] = assay: TNF-α concentration in medium of LPS-treated THP-1 cell line (ELISA); format: cell-based, human; conditions: THP-1, LPS 0.1 pg/mL; native GIP 1 μM, long-acting GIP derivative 0.1 μM or 1 μM; FIG. 2B
Excerpt: Here, the medium was quantified by using Human TNF alpha ELISA Kit (Abcam, US).

THP-1 cell line [2] = assay: Expression of inflammation-related genes in LPS-treated THP-1 cell line (real-time PCR); format: cell-based, human; conditions: THP-1, LPS 1 μg/mL; native GIP 10 μM, long-acting GIP derivative 1 or 10 μM; FIG. 2A
Excerpt: To confirm the in vitro anti-inflammatory effect of the long-acting GIP derivative conjugate on vasculitis, a human monocyte/macrophage cell line, THP-1 cell line, was used. A macrophage is known to secrete cytokines and chemokines in the early stage of infection in vasculitis-infected tissue, induce the progress of inflammation by utilizing other immune cells, and form giant cells. Therefore, identification of the anti-inflammatory effect in macrophages is referred to as an appropriate in vitro system for evaluating the efficacy on vasculitis.
The THP-1 cell line was cultured in RPMI 1640 medium supplemented with 10% fetal bovine serum (FBS), 100 μg/mL of streptomycin, 100 U/mL of penicillin, and […] of β-mercaptoethanol, under conditions of a temperature of 37° C. and 5% carbon dioxide. […] For use as the long-acting GIP derivative, the long-acting GIP conjugate (SEQ ID NO: 17) prepared in Example 3 was used.
RNA was isolated from the completely treated THP-1 cell line by using the RNeasy Mini Kit (Qiagen, US), and then cDNA was synthesized by using the iScript™ cDNA Synthesis Kit (Bio-rad, U.S.). The synthesized cDNA was referred to confirm the expression levels of inflammation-related genes by using the QuantStudio 6 Flex Real-Time PCR System (Applied Biosystems, U.S.). Here, the Delta Ct method was used, and beta-actin was used as a housekeeping gene. […]

Row | Substance | In vitro activity of long-acting GIP derivative compared to human native GIP in human GIP receptor (%) (human GIP receptor) | concentration of TNF-α in the medium (THP-1 cell line [1]) | expression levels of inflammation-related genes IL-6, IL-12, IL-1β and TNF-α (THP-1 cell line [2])
1 | YAibEGT FISDYSIALEKQAQQDFVNWLLAGGPSSGAPPPSC (Y[Aib]EGTFISDYSIALEKQAQQDFVNWLLAGGPSSGAPPPSC) [SEQ ID NO: 17, GIP derivative peptide] | 153.2% | – | –
2 | YAibEGT FISDYSIAMDAIAQQDFVNWLLAQKGKKNDWKHNITQC (Y[Aib]EGTFISDYSIAMDAIAQQDFVNWLLAQKGKKNDWKHNITQC) [SEQ ID NO: 11, GIP derivative peptide] | 84.8% | – | –
3 | YAibEGT FISDY SIAibLD KQAAAib EFVNW LLAibGG PSSGA PPPSC (Y[Aib]EGTFISDYSI[Aib]LDKQAA[Aib]EFVNWLL[Aib]GGPSSGAPPPSC) [SEQ ID NO: 21, GIP derivative peptide] | 148.5% | – | –
4 | YAibEGT FISDY SIAibLD KQAAAib EFVNW LLAibGH PSSGA PPPSC (Y[Aib]EGTFISDYSI[Aib]LDKQAA[Aib]EFVNWLL[Aib]GHPSSGAPPPSC) [SEQ ID NO: 24, GIP derivative peptide] | 123.3% | – | –
5 | glucose-dependent insulinotropic polypeptide [native GIP] | – | decreased | decreased
